Laboratory results taken from the Human Domainome abundance scans (Beltran et al. 2025).
± gives the uncertainty stated by the source.

B1: Transcriptional repressor p66-beta, residues 415 to 455; numbered along this chain, Q8WXI9 (parent)
chain: VEPFVCAQCRTDFTPHWKQEKNGKILCEQCMTSNQKKALKA

Variants of: B1
Test: abundance fitness (aPCA) (normalised: wild type 0, dead -1); higher = more abundant; growth selection in yeast, the domain comes from the species named
Conditions: Homo sapiens

Abundance fitness of substitutions, site by site:
Q29: E -0.097 ± 0.14; Y -0.329 ± 0.32; L -0.042 ± 0.087; W -0.3 ± 0.15; I -0.177 ± 0.16; M -0.14 ± 0.095; K 0.086 ± 0.11; S -0.156 ± 0.093; R 0.02 ± 0.058; P -0.141 ± 0.12; T -0.253 ± 0.12; C -0.491 ± 0.36; V -0.389 ± 0.086; H 0.333 ± 0.12; G -0.15 ± 0.07; D -0.083 ± 0.25; F -0.153 ± 0.12
T32: V -0.127 ± 0.06; E -0.186 ± 0.092; I -0.033 ± 0.13; G -0.121 ± 0.065; L -0.312 ± 0.093; Q -0.173 ± 0.092; P -0.056 ± 0.14; S -0.312 ± 0.13; F -0.143 ± 0.25; W -0.453 ± 0.08; R -0.145 ± 0.062; C -0.177 ± 0.17; M -0.145 ± 0.087; A -0.047 ± 0.061; K 0.045 ± 0.26
T11: V 0.587 ± 0.071; W -0.133 ± 0.072; S 0.058 ± 0.064; R 0.1 ± 0.056
K21: W 0.037 ± 0.077; A 0.008 ± 0.068; Q 0.235 ± 0.1; S -0.104 ± 0.084; V -0.026 ± 0.093; M -0.054 ± 0.17; G 0.145 ± 0.053; R 0.129 ± 0.057; P 0.264 ± 0.12
N22: F -0.377 ± 0.18; T 0.079 ± 0.2; D 0.011 ± 0.14; C 0.289 ± 0.12; V 0.193 ± 0.079; S 0.382 ± 0.08; K 0.066 ± 0.13; Q 0.106 ± 0.12; R 0.208 ± 0.065; Y 0.19 ± 0.3; A 0.05 ± 0.069; G 0.439 ± 0.06; P 0.027 ± 0.16; L -0.241 ± 0.12; W 0.137 ± 0.1
C30: V -0.664 ± 0.13; E -1.11 ± 0.2; R -0.84 ± 0.12; H -0.672 ± 0.28; W -1.07 ± 0.13; Q -0.795 ± 0.29; A -0.488 ± 0.13; L -0.786 ± 0.11; D -0.315 ± 0.19; K -0.635 ± 0.18
H16: P -0.23 ± 0.14; R -0.05 ± 0.066; K -0.28 ± 0.18; M -0.1 ± 0.1; N -0.319 ± 0.2; S -0.084 ± 0.074; E -0.042 ± 0.11; I -0.073 ± 0.2; Y -0.004 ± 0.24; D 0.015 ± 0.099; T 0.09 ± 0.089; L -0.272 ± 0.092; F -0.005 ± 0.18; W 0.017 ± 0.074; A -0.077 ± 0.074; G -0.022 ± 0.059; Q -0.14 ± 0.11; C 0.072 ± 0.15
I25: W -0.287 ± 0.1; Q -0.029 ± 0.15; P 0.069 ± 0.096; C -0.192 ± 0.12; A -0.306 ± 0.07; R -0.168 ± 0.07; E -0.118 ± 0.11; F -0.132 ± 0.14; D 0.714 ± 0.27; Y -0.307 ± 0.23; K -0.026 ± 0.095; T -0.054 ± 0.086; L -0.158 ± 0.083; V -0.407 ± 0.089; M -0.081 ± 0.076; S -0.246 ± 0.12
E28: P -0.178 ± 0.098; W -0.307 ± 0.096; G -0.066 ± 0.072; T 0.029 ± 0.17; R -0.343 ± 0.078; N 0.03 ± 0.13; I -0.418 ± 0.13; S -0.006 ± 0.087; D 0.08 ± 0.17; M -0.159 ± 0.11; A -0.122 ± 0.091; Y -0.16 ± 0.13; F -0.356 ± 0.21; Q -0.222 ± 0.12; C 0.074 ± 0.23; K -0.062 ± 0.17; L -0.181 ± 0.086; H -0.066 ± 0.29
P15: T 0.078 ± 0.085; W -0.401 ± 0.087; F -0.351 ± 0.18; A -0.011 ± 0.075; E -0.102 ± 0.076; I -0.154 ± 0.19; G -0.048 ± 0.06; L -0.018 ± 0.1; C 0.051 ± 0.08; R -0.15 ± 0.062; M -0.111 ± 0.1; Q -0.137 ± 0.23; D 0.212 ± 0.14; V 0.015 ± 0.063
Q19: E 0.163 ± 0.11; C 0.103 ± 0.16; P 0.109 ± 0.13; K 0.143 ± 0.089; S -0.044 ± 0.12; R -0.029 ± 0.069; M 0.026 ± 0.097; D 0.212 ± 0.15; T -0.346 ± 0.32; N 0.136 ± 0.14; G 0.323 ± 0.052; V 0.159 ± 0.061; A 0.106 ± 0.066
T14: S -0.042 ± 0.12; L -0.035 ± 0.078; I -0.298 ± 0.13; C -0.145 ± 0.16; E -0.041 ± 0.11; K -0.014 ± 0.072; A -0.185 ± 0.086; D -0.347 ± 0.27; Q -0.078 ± 0.12; R -0.237 ± 0.068; F -0.056 ± 0.21; G -0.395 ± 0.086; P 0.137 ± 0.078; V 0.144 ± 0.067; W -0.521 ± 0.094; H -0.039 ± 0.14; Y 0.264 ± 0.2; M -0.527 ± 0.25
